Results on four compounds are retold here after paper PMC3478187, “PEGylation, increasing specific activity and multiple dosing as strategies to improve the risk-benefit profile of targeted radionuclide therapy with ^177Lu-DOTA-bombesin analogues” (EJNMMI Research, 2012).

Like-named read-outs stand apart in the source and are kept apart here.

One may read the IC50 as the concentration at which inhibition is half-maximal.

In data set [1] the target is T1, BN2/GRP receptors (Homo sapiens, UniProt P30550).
T1 construct: Since IC50 determination was done on whole PC-3 cells; endogenous in cells; host or cells: PC-3 cells (human prostate carcinoma)
The data set is described as follows: Apparent receptor affinity (IC50), displacement of ^99mTc-BN(7-14) on whole PC-3 cells. Format: binding. The procedure:
Material & Methods: PC-3 cells at confluence were placed in 48-well plates and left to attach overnight. […] After 1 h incubation at 37°C, the cells were twice washed with cold PBS and solubilized by adding 400 μl (2 x) of 1 N NaOH at 37°C. The bound radioactivity was measured in the gamma counter. The experiments were performed in triplicate.

The conditions of data set [2]: cited from earlier work.
For data set [3] the following is noted: cited from earlier work; for GI uptake: HPLC purified.
Experimental: The biodistribution data, in which 0.002 nmol of ^177Lu-AMBA and ^177Lu-DOTA-8-AOC-BN(7–14) (HPLC purified) was injected per mouse [23], and the data of ^177Lu-DOTA-PESIN (0.2 nmol peptide) [25] were compared with our biodistribution data, in which 0.075 nmol of the ^177Lu-labelled BN analogues were injected. This 0.075 nmol is the nearest possible approximation to the 0.002 nmol without HPLC purification, which is desired in clinics.
Data set [4] has as its system PC-3 xenografts. The conditions noted are these: ref [24]; cited from earlier work. The source says: Comparing our study with the therapy studies with ^177Lu-AMBA [23], ^177Lu-DOTA-PESIN [25] (2 × 28 MBq, 0.2 nmol) and ^177Lu-DOTA-8-AOC-BN(7–14), we found the tumour growth inhibition with our PEGylated BN analogue to be lower than with AMBA (approximately 73% vs. approximately 82%) but higher than with DOTA-PESIN (approximately 73% vs. approximately 45%) and roughly the same as with ^177Lu-DOTA-8-AOC-BN(7–14) (approximately 73% vs. approximately 79%) 3 weeks after the first dose. However, such a comparison is not fully conclusive since these therapy studies differ in tumour size at ...

Where [5] appears, read: 1 h p.i., 0.002 nmol per mouse, ref [23].
[6] abbreviates: 24 h p.i., 0.002 nmol per mouse, ref [23].

T1 sequence (P30550 whole entry): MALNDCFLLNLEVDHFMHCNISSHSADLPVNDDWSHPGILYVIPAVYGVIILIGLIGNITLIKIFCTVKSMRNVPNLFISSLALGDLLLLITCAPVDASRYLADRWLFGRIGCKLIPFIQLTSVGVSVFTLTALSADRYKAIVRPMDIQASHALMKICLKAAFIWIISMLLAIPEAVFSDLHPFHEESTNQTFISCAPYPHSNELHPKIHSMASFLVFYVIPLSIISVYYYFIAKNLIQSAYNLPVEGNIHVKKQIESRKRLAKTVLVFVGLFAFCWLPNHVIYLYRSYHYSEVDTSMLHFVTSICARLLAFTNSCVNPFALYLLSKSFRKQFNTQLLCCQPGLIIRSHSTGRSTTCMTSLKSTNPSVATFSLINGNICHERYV

Regarding `CCCC[C@H](NC(=O)[C@H](CC1CCCCC1)NC(=O)[C@H](Cc1c[nH]cn1)NC(=O)CNC(=O)[C@@H](NC(=O)[C@H](C)NC(=O)[C@H](Cc1c[nH]c2ccccc12)NC(=O)[C@H](CCC(N)=O)NC(=O)CCNC(=O)CCNC(=O)CC(CCCCN)NC(=O)CN1CCN(CC(=O)O)CCN(CC(=O)O)CCN(CC(=O)O)CC1)C(C)C)C(N)=O` (stereo partly drawn) [DOTA-Lys-BN, DOTA-β^3hLys-βAla-βAla-Gln^7-Trp^8-Ala^9-Val^10-Gly^11-His^12-Cha^13-Nle^14-NH2], the IC50 in data set [1] stood at 2.03 ± 0.42 nM.

For “DO3A-CH2CO-8-aminooctanoyl-Gln-Trp-Ala-Val-Gly-His-Leu-Met-NH2 [^177Lu-AMBA]”, in data set [2] (ref [23]), the “half-life (t1/2) in human plasma” value was 38.8 h. Besides, the GI uptake is 11.2 %ID in data set [3] (setting [5]) and 5.8 % ID in data set [3] (setting [6]). Also, in data set [3] (setting [5]), the tumour uptake was 6.35 ± 2.23 % ID/g.

Regarding “DOTA-15-amino-4,7,10,13-tetraoxapentadecanoic acid-Gln-Trp-Ala-Val-Gly-His-Leu-Met-NH2 [^177Lu-DOTA-PESIN]”, in data set [2] (ref [25]), the “half-life (t1/2) in human plasma” value is on record as 8.4 h. The kidney uptake in data set [3] (1 h p.i., 0.2 nmol peptide, Gelofusine and polyglutamic acid co-administered, ref [25]) is 3.8 ± 0.34 %ID/g. Besides, the tumour uptake in data set [3] (1 h p.i., 0.2 nmol peptide, ref [25]) is on record as 11.6 ± 1.4 %ID/g.

For the compound “DOTA-8-AOC-BN(7–14)NH2 [^177Lu-DOTA-8-AOC-BN(7–14)]”, in data set [4], the “tumour growth inhibition 3 weeks after the first dose” value was “approximately 79%”. For the same compound, in data set [3] (setting [5]), the GI uptake is listed as 9.7 %ID and the tumour uptake is on record as 2.84 ± 1.65 % ID/g. For the same compound, the GI uptake in data set [3] (setting [6]) was 1.7 % ID.
